Laboratory results reported in CN113150157A.

What was measured:
[1] = molecular target: 人成纤维细胞生长因子2(FGF2) (human) (UniProt P09038); test: sandwich chemiluminescence immunoassay, AntiVEGF_C capture and AntiVEGF_N-HRP detection, FGF2 at 20μg/ml (specificity test)
[2] = molecular target: 人成纤维细胞生长因子2(FGF2) (human) (UniProt P09038); test: sandwich chemiluminescence immunoassay, AntiVEGF_C capture and AntiVEGF_N-HRP detection, FGF2 at 20μg/ml; apparent VEGF concentration
[3] = molecular target: 表皮生长因子(EGF) (UniProt P01133); test: sandwich chemiluminescence immunoassay, AntiVEGF_C capture and AntiVEGF_N-HRP detection, EGF at 30ng/ml (specificity test)
[4] = molecular target: 表皮生长因子(EGF) (UniProt P01133); test: sandwich chemiluminescence immunoassay, AntiVEGF_C capture and AntiVEGF_N-HRP detection, EGF at 30ng/ml; apparent VEGF concentration

UniProt P01133, sequence (P01133 971-1023 limits assumed): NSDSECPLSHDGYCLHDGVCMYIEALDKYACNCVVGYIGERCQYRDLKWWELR
UniProt P09038, sequence (P09038 143-288 limits assumed): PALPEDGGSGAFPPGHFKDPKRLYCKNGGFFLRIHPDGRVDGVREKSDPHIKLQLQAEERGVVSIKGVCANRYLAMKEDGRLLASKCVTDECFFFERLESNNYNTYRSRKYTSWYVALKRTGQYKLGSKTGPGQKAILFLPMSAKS

发光值 [1]: 14900 RLU
浓度值 (检测表观值) [2]: 11.3 pg/mL
发光值 [3]: 8770 RLU
浓度值 (检测表观值) [4]: 6.57 pg/mL
B1: 单克隆抗体AntiVEGF_C (antibody, V domains shown)
VH: EVQLVESGGGLVQPGGSRKLSCAASGFTFSSFGMHWVRQAPEKGLEWVAFINSDSSAFYYADTVQDRFTISRDNPKNTLFLQMTSLRSEDTAMYYCARAGNHYYGGAYWGQGTLVTVSA
VL: QIVLSQSPAILSASPGEKVTMTCRASSSVSYMHWYQQRPGSSPKPWIYDTSNLASGVPVRFSGSGSGTSYSLTISRVEVEDAATYYCQQWSRHPPITFGSGTKLEIK
